Key:
[1] = molecular target: Crataeva tapia bark protein (CrataBL) (Crataeva tapia) (UniProt U3KRG0); test: SEC; Superdex 75 equilibrated in 0.15 M NaCl; at the concentration used in the crystallization trials
bovine trypsin (bovine) = test: enzyme inhibition assay; chromogenic or fluorogenic substrates in 96-well plates at 37°C; enzyme pre-incubated with CrataBL for 10 min; apparent Ki (Kiapp) by fit to the equation for slow-tight binding; buffer specific for each enzyme (trypsin 40 nM in 0.1 M Tris-HCl pH 8.0 with CaCl2; Factor Xa 21 nM in 0.02 M Tris-HCl pH 7.4, 0.14 M NaCl, 5.0 mM CaCl2, 0.1% BSA)
human Factor Xa (human) = test: as above

## Crataeva tapia bark protein (CrataBL) (from UniProt U3KRG0 1-165) (natural protein)
[1]
  stoichiometry N: 2
Bovine trypsin (bovine)
  Ki: 43 µM
Human Factor Xa (human)
  Ki: 8.6 µM

Reference: article PMC3688800
